Laboratory results reported in US20150037349A1 (TECHNOPHAGE INVESTIGA O E DESENVOLVIMENTO EM BIOTECNOLOGIA, published 2015).
Where a chain is given by its changes, count along the chain named.

B1: VL11-VL11 3L (other)
single chain VL-VL dimer: ELVMTQTPASVEAAVGGTVTIKCQASQSISRYLAWYQQKPGQPPKLLIYRASTLASGVSSRFKGSGSGTEFTLTISDLECADAATYYCQSTYVNRGSVAAFGGGTEVVVKSGGGGSGGGGSGGGGSSGELVMTQTPASVEAAVGGTVTIKCQASQSISRYLAWYQQKPGQPPKLLIYRASTLASGVSSRFKGSGSGTEFTLTISDLECADAATYYCQSTYVNRGSVAAFGGGTEVVVK
notes: Hexahistidine tail and HA tag; also called VL11-3L-VL11; VL11-11 #3L
B2: VL11-VL18 3L (other)
single chain VL-VL dimer: ELVMTQTPASVEAAVGGTVTIKCQASQSISRYLAWYQQKPGQPPKLLIYRASTLASGVSSRFKGSGSGTEFTLTISDLECADAATYYCQSTYVNRGSVAAFGGGTEVVVKSGGGGSGGGGSGGGGSSGELVLTQTPASVEAAVGGTVTIKCQASQSISSYLAWYQQKPGHPPKLLIYKASTLASGVSSRFKGSGSGTEFTLTISDLECADAATYYCQSTYLGGTYVGGAFGGGTELEIL
notes: Hexahistidine tail and HA tag; also called VL11-3L-VL18; VL11-18 #3L
B3: VL18-VL18 3L (other)
single chain VL-VL dimer: ELVLTQTPASVEAAVGGTVTIKCQASQSISSYLAWYQQKPGHPPKLLIYKASTLASGVSSRFKGSGSGTEFTLTISDLECADAATYYCQSTYLGGTYVGGAFGGGTELEILSGGGGSGGGGSGGGGSSGELVLTQTPASVEAAVGGTVTIKCQASQSISSYLAWYQQKPGHPPKLLIYKASTLASGVSSRFKGSGSGTEFTLTISDLECADAATYYCQSTYLGGTYVGGAFGGGTELEIL
notes: Hexahistidine tail and HA tag; also called VL18-3L-VL18; VL18-18 #3L
B4: VL18-3L-VL11 DI #3 (other)
chain: ELVLTQQPASVEAAPGGTVTIKCQASQSISSYLAWYQQKPGHPPKLLIYKVSTRASGVSSRFSGSGSGTEFTLTISDLKSADAATYYCQSTYLGGTYVGGAFGGGTELEIKSGGGGSGGGGSGGGGSSGELVMTQQPASVEAAPGGTVTIKCQASQSISSYLAWYQQKPGQPPKLLIYRVSTRASGVSSRFSGSGSGTEFTLTISDLKSADAATYYCQSTYVNRGSVAAFGGGTKVVVKYPYDVPDYA
notes: also called Variant 3
B5: VL18-3L-VL11 DI #1 (other)
chain: B4 chain with T91A, T220A, A229S
notes: Cloned in pET28a; also called Variant 1
B6: VL18-3L-VL11 DI #5 (other)
chain: B4 chain with V51A, R54L, V180A, R183L
notes: also called Variant 5
B7: rat TNF-alpha (ligand)
chain: LRSSSQNSSDKPVAHVVANHQAEEQLEWLSQRANALLANGMDLKDNQLVVPADGLYLIYSQVLFKGQGCPDYVLLTHTVSRFAISYQEKVSLLSAIKSPCPKDTPEGAELKPWYEPMYLGGVFQLEKGDLLSAEVNLPKYLDITESGQVYFGVIAL
B8: rat albumin (other)
chain: EAHKSEIAHRFKDLGEQHFKGLVLIAFSQYLQKCPYEEHIKLVQEVTDFAKTCVADENAENCDKSIHTLFGDKLCAIPKLRDNYGELADCCAKQEPERNECFLQHKDDNPNLPPFQRPEAEAMCTSFQENPTSFLGHYLHEVARRHPYFYAPELLYYAEKYNEVLTQCCTESDKAACLTPKLDAVKEKALVAAVRQRMKCSSMQRFGERAFKAWAVARMSQRFPNAEFAEITKLATDVTKINKECCHGDLLECADDRAELAKYMCENQATISSKLQACCDKPVLQKSQCLAEIEHDNIPADLPSIAADFVEDKEVCKNYAEAKDVFLGTFLYEYSRRHPDYSVSLLLRLAKKYEATLEKCCAEGDPPACYGTVLAEFQPLVEEPKNLVKTNCELYEKLGEYGFQNAVLVRYTQKAPQVSTPTLVEAARNLGRVGTKCCTLPEAQRLPCVEDYLSAILNRLCVLHEKTPVSEKVTKCCSGSLVERRPCFSALTVDETYVPKEFKAETFTFHSDICTLPDKEKQIKKQTALAELVKHKPKATEDQLKTVMGDFAQFVDKCCKAADKDNCFATEGPNLVARSKEALA
notes: also called rat serum albumin; albumin from rat sera
B9: VL18-3L-VL11 DI3-PEP DI #8 (other)
chain: ELVLTQQPASVEAAPGGTVTIKCQASQSISSYLAWYQQKPGHPPKLLIYKVSTRASGVSSRFSGSGSGTEFTLTISDLKSADAATYYCQSTYLGGTYVGGAFGGGTELEIKSGGGGSGGGGSGGGGSSGELVMTQQPASVEAAPGGTVTIKCQASQSISSYLAWYQQKPGQPPKLLIYRVSTRASGVSSRFSGSGSGTEFTLTISDLKSADAATYYCQSTYVNRGSVAAFGGGTKVVVKSGGGGSGGGGSGGGGSSGDITGAALLEAKDAAINELKQYGISDYYVHLINKADTVEGVNALKDEILSALPYPYDVPDYA
notes: De-immunized dimer DI #3 fused to de-immunized PEP; also called Variant 8
B10: VL18-3L-VL11 DI5-PEP DI #9 (other)
chain: B9 chain with V51A, R54L, V180A, R183L
notes: De-immunized dimer DI #5 fused to de-immunized PEP; also called Variant 9

Key:
BSA = biological target: T1, BSA (bovine, UniProt P02769); test: ELISA, BSA as negative-control antigen, anti-HA-HRP, OD 405 nm
T1 construct: coated as negative-control antigen; Negative control antigen of the ELISAs; also called bovine serum albumin
T1 sequence (P02769 25-607 limits assumed): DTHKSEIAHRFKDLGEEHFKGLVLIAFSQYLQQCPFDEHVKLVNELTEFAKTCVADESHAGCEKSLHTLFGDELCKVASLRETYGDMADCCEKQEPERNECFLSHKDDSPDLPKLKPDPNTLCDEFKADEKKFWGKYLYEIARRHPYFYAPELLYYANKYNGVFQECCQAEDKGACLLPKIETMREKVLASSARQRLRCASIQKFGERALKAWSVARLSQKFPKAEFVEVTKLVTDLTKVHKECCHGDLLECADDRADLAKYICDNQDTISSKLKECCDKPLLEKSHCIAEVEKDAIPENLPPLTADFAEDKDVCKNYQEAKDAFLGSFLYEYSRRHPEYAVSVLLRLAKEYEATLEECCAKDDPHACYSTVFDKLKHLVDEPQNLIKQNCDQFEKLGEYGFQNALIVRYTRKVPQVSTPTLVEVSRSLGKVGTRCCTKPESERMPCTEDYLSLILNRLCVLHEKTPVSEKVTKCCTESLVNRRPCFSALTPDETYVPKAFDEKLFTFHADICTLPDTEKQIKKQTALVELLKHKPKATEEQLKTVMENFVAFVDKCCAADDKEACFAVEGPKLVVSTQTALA
Experimental: (§1) Relative binding activities of VL monomers and constructed dimers were measured for human and rat TNF-alpha, while BSA was used as a negative control. Briefly, a 384-well ELISA plate was coated with 80 ng of human or rat TNF-alpha and incubated overnight at 4° C. Wells were blocked for one hour at 37° C. with 3% BSA in PBS. Antibody fragments were added to the wells and incubated for 1 h at room temperature. After washing the wells with PBS, anti-HA-HRP mAb (Roche) was used for detection.

rat TNF-alpha [1] = biological target: B7; test: ELISA, rat TNF-alpha coated (80 ng/well), anti-HA-HRP, OD 405 nm, one unstated fragment concentration
Experimental: as §1

human TNF-alpha [2] = biological target: T2, human TNF-alpha (human, UniProt P01375 77-233); test: ELISA, human TNF-alpha coated (80 ng/well), anti-HA-HRP, OD 405 nm, one unstated fragment concentration
T2 construct: Immobilised on a CM5 chip or coated on ELISA plates
T2 sequence (P01375 77-233 limits assumed): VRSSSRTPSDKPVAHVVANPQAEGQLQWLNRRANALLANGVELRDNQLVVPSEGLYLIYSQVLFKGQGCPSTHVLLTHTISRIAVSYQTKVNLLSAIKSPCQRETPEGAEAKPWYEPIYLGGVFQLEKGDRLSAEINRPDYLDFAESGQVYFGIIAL
Experimental: as §1

human TNF-alpha [3] = biological target: T2, human TNF-alpha; test: Biacore (SPR)
rat TNF-alpha [4] = biological target: B7; test: antigen cross-reactivity, as described in the Examples above
VL18-3L-VL11 PEP DI #7 [5] = biological target: T3, VL18-3L-VL11 PEP DI #7; test: as above
T3 construct: also called Variant #7

VL18-3L-VL11 PEP DI #7 [6] = biological target: T3, VL18-3L-VL11 PEP DI #7; test: Biacore (SPR)
human albumin = biological target: T4, human albumin (human, UniProt P02768 25-609); test: Biacore (SPR)
T4 construct: also called human serum albumin; albumin from human sera
T4 sequence (P02768 25-609 limits assumed): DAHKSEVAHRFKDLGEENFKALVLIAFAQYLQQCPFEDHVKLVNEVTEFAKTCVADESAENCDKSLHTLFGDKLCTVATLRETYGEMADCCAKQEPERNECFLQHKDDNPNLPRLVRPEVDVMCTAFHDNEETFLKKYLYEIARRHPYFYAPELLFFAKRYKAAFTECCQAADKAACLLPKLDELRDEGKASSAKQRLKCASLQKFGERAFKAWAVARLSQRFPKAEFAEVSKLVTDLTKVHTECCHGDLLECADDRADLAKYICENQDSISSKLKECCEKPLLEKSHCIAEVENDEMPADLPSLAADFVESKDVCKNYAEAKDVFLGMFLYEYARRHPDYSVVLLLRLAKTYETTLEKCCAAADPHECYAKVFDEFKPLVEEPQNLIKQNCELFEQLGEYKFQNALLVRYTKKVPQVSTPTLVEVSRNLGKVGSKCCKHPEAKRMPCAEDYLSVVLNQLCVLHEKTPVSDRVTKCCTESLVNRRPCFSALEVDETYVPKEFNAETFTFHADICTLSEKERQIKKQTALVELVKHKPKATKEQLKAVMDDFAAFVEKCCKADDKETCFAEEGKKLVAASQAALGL

rat albumin = biological target: B8; test: Biacore (SPR)
mouse albumin = biological target: T5, mouse albumin (mouse, UniProt P07724 25-608); test: antigen cross-reactivity, as described in the Examples above
T5 construct: also called mouse serum albumin; albumin from mouse sera

Binder: B1
- binding result (BSA): no binding
- binding result (rat TNF-alpha [1]): binds
- binding result (human TNF-alpha [2]): binds

Binder: B2
- binding result (BSA): no binding
- binding result (rat TNF-alpha [1]): binds
- binding result (human TNF-alpha [2]): binds

Binder: B3
- binding result (BSA): no binding
- binding result (rat TNF-alpha [1]): binds
- binding result (human TNF-alpha [2]): binds

Binder: B4
- Kd (human TNF-alpha [3]): 0.7 nM
- binding result (rat TNF-alpha [4]): binds

Binder: B5
- binding result (rat TNF-alpha [4]): binds

Binder: B6
- Kd (human TNF-alpha [3]): 0.8 nM
- binding result (rat TNF-alpha [4]): binds

Binder: B7
- binding result (VL18-3L-VL11 PEP DI #7 [5]): binds

Binder: B8
- Kd (VL18-3L-VL11 PEP DI #7 [6]): 28.1 nM

Binder: B9
- Kd (human TNF-alpha [3]): 0.6 nM
- Kd (human albumin): 88.5 nM
- Kd (rat albumin): 22.4 nM

Binder: B10
- Kd (human TNF-alpha [3]): 0.4 nM
- Kd (human albumin): 92 nM
- Kd (rat albumin): 32 nM
- binding result (mouse albumin): binds
- binding result (rat TNF-alpha [4]): binds
